Data taken from paper PMC10074443.

How the values were obtained:
[1] = system: C[C@@H](N)[C@H](N)C(=O)O; assay: continuous MesG/hydroxylamine coupled adenylation assay; type: biochemical, Paraburkholderia acidicola; settings: co-substrate ATP; hydroxylamine as acceptor
[2] = system: N[C@H](CF)[C@H](N)C(=O)O; assay: as above; type: biochemical, Paraburkholderia acidicola; settings: co-substrate ATP; hydroxylamine as acceptor

For “A3 (adenylation domain of SulM) (Paraburkholderia acidicola)”, the Km [1] was 1.08 mM and the Km [2] was 20.7 mM.
